Experiments:
[1] = biological target: T1, serum resistance-associated protein (SRA) from Trypanosoma brucei rhodesiense, recombinant SRA (SEQ ID NO: … (Trypanosoma brucei rhodesiense, UniProt O96637 31-274)); test: SPR, mAb captured, 25C, assoc. pH 7.4, dissoc. pH 4.5
T1 construct: also called SRA protein
T1 sequence: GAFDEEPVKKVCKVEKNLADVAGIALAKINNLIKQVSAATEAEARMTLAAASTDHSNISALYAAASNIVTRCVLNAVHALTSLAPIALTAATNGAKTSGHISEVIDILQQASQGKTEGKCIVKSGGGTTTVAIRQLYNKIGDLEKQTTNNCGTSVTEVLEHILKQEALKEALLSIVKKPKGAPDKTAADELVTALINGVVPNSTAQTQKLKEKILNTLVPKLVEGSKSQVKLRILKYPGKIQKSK
Protocol: (§1) Equilibrium dissociation constants (KD) values for SRA binding to selected purified anti-SRA monoclonal antibodies were determined using a real-time surface plasmon resonance biosensor assay on a Biacore T200 instrument. […] SRA binding to the captured monoclonal antibodies was monitored for 4 min while the dissociation of mAb bound SRA was monitored for 7 min. Two different assays formats were adopted to characterize kinetics of SRA binding—(i) regular kinetics and (ii) pH4.5 chase. Regular kinetics experiments were performed using pH7.4 buffer as the running buffer and both the association and dissociation was performed in pH7.4. For the chase format, association and dissociation were performed in pH7.4 buffer and pH4.5 buffer respectively.
(§2) Kinetic association (kₐ) and dissociation (kd) rate constants were determined by processing and fitting the data to a 1:1 binding model using Scrubber 2.0c curve fitting software. Only the dissociation rate (kd) was calculated for the pH4.5 chase experiment. Binding dissociation equilibrium constants (KD) and dissociative half-lives (t½) were calculated from the kinetic rate constants as:

[2] = biological target: T1, serum resistance-associated protein …; test: SPR, 25C, t1/2 pH 7.4 over pH 4.5
Protocol: as §1, §2

[3] = biological target: T1, serum resistance-associated protein …; test: SPR, mAb captured, 25C, pH 7.4
Protocol: as §1, §2

[4] = biological target: T2, SRA.mmh; test: Octet, SRA.mmh captured on anti-Penta-His tips, mAb-1 at 50 ug/mL for 5 min, 25 C, pH 7.4
T2 construct: also called SRA.mmh (CHO)
T2 antigen: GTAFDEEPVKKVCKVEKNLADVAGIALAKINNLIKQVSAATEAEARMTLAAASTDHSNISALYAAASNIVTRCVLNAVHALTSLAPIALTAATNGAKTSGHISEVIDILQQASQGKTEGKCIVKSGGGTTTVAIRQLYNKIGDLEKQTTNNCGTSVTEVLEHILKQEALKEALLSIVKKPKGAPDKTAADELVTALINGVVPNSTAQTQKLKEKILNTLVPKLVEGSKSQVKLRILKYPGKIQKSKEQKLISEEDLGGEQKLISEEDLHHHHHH

[5] = biological target: T2, SRA.mmh; test: Octet, mAb-2 at 50 ug/mL on captured SRA.mmh after negative control α-PRLR H1H6800P as mAb-1 (row 32 (-))
[6] = biological target: T1, serum resistance-associated protein …; test: SPR, mAb captured, pH 4.5, 25C; competitor biotin-apoL1 peptide
[7] = biological target: T1, serum resistance-associated protein …; test: SPR, mAb captured, pH 4.5, 25C; competitor biotin-mutant apoL1 peptide
[8] = biological target: T1, serum resistance-associated protein …; test: SPR, mAb captured, 50 nM SRA, pH 4.5, 25C

Binder | t ½ [1] [h] | t ½ ratio pH 7.4/pH 4.5 [2] | Kd [3] [nM] | kon [3] [M⁻¹ s⁻¹] | t ½ [3] [h] | 50 ug/mL mAb 1 Bound (nm) [4] [nm] | Binding of mAb-2 to SRA Pre-complexed with mAb-1 [5] | 50 nM SRA + 5 uM apoL1 peptide binding (RU) [6] [RU] | % Blocking, apoL1 peptide [6] [%] | 50 nM SRA + 5 uM mutant apoL1 peptide binding (RU) [7] [RU] | % Blocking, Mutant apoL1 peptide [7] [%] | 50 nM SRA binding (RU) [8] [RU]
H1H10027P (antibody, V domains shown, Fully human antibody with human IgG1 Fc (prefix H1H)) VH: EVQLVESGGALVQPGRSLTLSCAASGFTFDDYTMHWVRQTPGKGLEWVSGILWNSDNLVYADSVKGRFTISRDNAKNSLYLQMNSLRVEDTALYYCTKEIDYLTLGGNAFDVWGQGTMVTVSS VL: DIQMTQSPSTLSASVGDRITITCRASQNINYWLAWYQQKPGKAPKLLIYKASSLAGGVPSRFSGSGSGTDFTLTINSLQPDDFATYYCQKYNTYSLNFGGGTKVEIK | 1.4 | ≥ 3 | ≤ 0.0376 | 1.33e+06 | ≥ 3.85 | 1.5 | 1.55 | 118 | -24 | 92 | 4 | 95
H1H10058P (antibody, V domains shown, Fully human antibody with human IgG1 Fc (prefix H1H)) VH: EVQLVESGGGLVQPGGSLRLSCAASGFTFNDFFMSWVRQAPGKGLEWVANLNQDGSERHYVDSVKGRFTISRDNAKNSLSLQMNSLRVEDTAVYYCAREGGDSWGQGTLVTVSS VL: DIVMTQSPDSLAVSLGERVTINCKSSQSILYSANNKDYLAWFHQKPGQPPKLLIYWASIRESGVPDRISGSGSGTDFTLTISSLQAEDVAVYYCQQYYLFPPTFGQGTKVEIK | 4.05 | ≥ 1 | ≤ 0.0786 | 636000 | ≥ 3.85 | 1.44 | 1.27 | 57 | 4 | 56 | 5 | 59
H1H10026P (antibody, V domains shown, Fully human antibody with human IgG1 Fc (prefix H1H)) VH: QVQLVESGGGVVQPGRSLRLSCEASGFTFSIYGMHWVRQAPGKGLEWVAVISYDGTNRYYADSVKGRFTISRDNSKNTLYLQMNSLRAEDTAVYYCAKVNIWNFLFDYWGQGTLVTVSS VL: EIVLTQSPGTLSLSPGERATLSCRASQSVSGNYLAWYQQKPGQAPRLLIYGPSSRATGIPDRFSGSGSGTDFTLTISRLEPEDFAVYYCQQYGTSLTFGGGTKVEIK | 1.75 | ≥ 2 | ≤ 0.0814 | 614000 | ≥ 3.85 | 1.45 | 1.64 | 84 | 19 | 106 | -2 | 104
H1H10064P (antibody, V domains shown, Fully human antibody with human IgG1 Fc (prefix H1H)) VH: QVQLVQSGAEVKKPGSSVKVSCKASGGSFSSNVFSWVRQAPGQGLEWMGGIIPIFGSANYAQKFQGRVTITTDESTTTAYMELSSLRSEDTAVYYCAIGGTGPSGYNWNYGAFYIWGQGTMVTVSS VL: DIQMTQSPSSLSASVGDRVTITCRASQGIRNDLGWYQQKPGIAPKRLIYAASSLQSGVPSRFSGSGSGTEFTLTISSLQPEDFATYYCLQHNSYPYTFGQGTKLEIK | 0.025 | 9 | 0.546 | 1.6e+06 | 0.217 | 1.25 | 1.22 | -11 | 100 | 67 | 11 | 76
H1H10031P (antibody, V domains shown, Fully human antibody with human IgG1 Fc (prefix H1H)) VH: EVQLVESGGNVVRPGGSLRLSCSGSGFAFENYGMSWVRQGPGKGLEWVSNINWNGGSLNYVDSVKGRFTISRDNAKNSLYLQMNSLRAEDTALYYCARVIVYGMDVWGQGTTVTVSS VL: DIQMTQSPSSLSASVGDRVTITCRASQGIRNGLGWFQQKPGKAPKRLIYATSSLQSGVPSRFSGSGSGTEFTLTISSLQPEDFATYYCLQSNSYPWTFGQGTKVEIK | 3.32 | ≥ 1 | ≤ 0.095 | 526000 | ≥ 3.85 | 1.59 | 1.58 | 45 | 25 | 57 | 6 | 60
H2aM10200N (antibody, V domains shown, Hybridoma-derived chimeric antibody, human variable domains and mouse constant domains (mouse Fc, prefix H2aM); also called H2M10200N) VH: QVQLVQSGAEVKKPGSSVKVSCKASGGTFSSYAISWVRQAPGQGLEWMGGIIPFFGTATYAQKFQGRVTITTDESTRTVYMELSSLRYEDTAVYYCARWYSGYGGDFDYWGQGTLVTVSS VL: AIQMTQSPSSLSASVGDRVTITCRASQGIRNDLGWFQQKPGKAPKLLIYAASSLQSGVPSRFSGSGSGTDFTLSISSLQPEDFATYYCLQDYSYPRTFGQGTKVEIK | 0.0333 | 77 | 0.0996 | 844000 | 2.28 | 1.59 | 1.28 | -2 | 100 | 150 | 5 | 159
H1H10045P (antibody, V domains shown, Fully human antibody with human IgG1 Fc (prefix H1H)) VH: not shown VL: DIQMTQSPSFVSASVGDRVTISCRASQDIHTWLAWYQQKPGKAPNLLIYAASGLHSRAPSRFSGSGSGTDFTLTISSLQPEDFATYYCQKADRFPFTFGPGTKVDIK | ≥ 3.85 | – | ≤ 0.108 | 459000 | ≥ 3.85 | 1.72 | 1.4 | 52 | 36 | 77 | 6 | 82
H1H10056P (antibody, V domains shown, Fully human antibody with human IgG1 Fc (prefix H1H)) VH: QVQLVESGGGVVQPGRSLRLSCSASGFTFSLYGMHWIRQAPGKGLEWVAVISYDGSNTYYGDSVKGRFTISRDNSKNTLYLQMNSLRTEDTAIYYCAKVYNWNYLFDYWGQGTLVTVSS VL: EIVLTQSPDTLSLSPGERATLSCRASQNVNNNFLAWYQQKPGQAPRLLIYGASSRATDIPERFSGSGSGTDFTLTISRLEPEDFAVYYCLHYVNSRTFGQGTKVEIK | 0.117 | ≥ 31 | ≤ 0.134 | 372000 | ≥ 3.85 | 1.3 | 1.28 | -4 | 100 | 67 | 7 | 72
H2aM10201N (antibody, V domains shown, Chimeric antibody, human variable domains and mouse constant domains (mouse Fc, prefix H2aM); also called H2M10201N) VH: QVQLLESGGGVVQPGKSLRLSCVASGSIFSIYGMNWVRQAPGKGLEWVASVSSDGSAKFYADSVKGRFTISRDNSNDTLFLQMTSLRAEDTAVYYCAKTLWNYLFDSWGQGTLVTVSS VL: ENVLTQSPDTLSLSPGERATLSCRASQSITSNYLAWYQQKPGQTPRLLISFTSRRATGIPDRFSGSGSGTVFTLTISRLEPEDFAVYYCQQYGTSLTFGGGAKVEIR | 0.0117 | 109 | 0.245 | 642000 | 1.23 | 1.27 | 1.31 | 42 | 61 | 108 | 0 | 109
